According to the nanobody polyreactivity screen of Harvey et al. (2022):

Test: yeast display, Sf9 membrane polyspecificity reagent, FACS + sequencing; frameworks hold sequencing errors
Outline: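 Genes from sorted yeast were amplified by colony PCR, read by MiSeq 2 × 250 sequencing and filtered on CDR length. These cells carried a synthetic nanobody library in Saccharomyces cerevisiae BJ5465 and were sorted by FACS into low and high (top ~1%) gates on anti-HA and streptavidin fluorescence. Polyreactivity is labelled according to the gate of origin.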
In the case of “QVQLVESGGGLVQAGGSLRLSCAASGSTLPRYTMGWYRQAPGKERELVAAISFSGSSTYYADSVKGRFTISRVNAKNTVYLQMNSLKPEDTAVYYCRYGYNYWGQGTQVTVSS”, the “polyreactivity (PSR sort gate)” value is reported as “high polyreactivity”. With “QVQLEESGGGLVQAGGSLRLSCAASGAIFYAYAMGCYRQATGKEREFVAAITRRGGNTYYADSVKGRFTISRDNAKNTVYVQMNSLKPEDTEVYYSAADAGGGTFDYWGHGTQVTVSS” the “polyreactivity (PSR sort gate)” value was “low polyreactivity”. With “QVQLVESGGGLVQAGGSLRLSCAASGSIFEYYTMGWYRQAPGKERELVAGISWSGGSTYYADSVKGRFTISRDNAKNTVYLQMNSLKPEDTAVYYCAARSRSGRQEYYYWGQGTQVTVSS” the “polyreactivity (PSR sort gate)” value was “high polyreactivity”. For “QVQLVESGGGLVQAGGSLRLSCAASGSTQKYAMGWYRQAPGKERELVAAIRRTGGSTYYADSVKGRFTISRDNAKNTVYLQMNSLKPEDTAVYYCAADPYNYYVSGYDYWGQVTQVTVSS”, the “polyreactivity (PSR sort gate)” value was “low polyreactivity”. For “QVQLVESGGGLVQAGGSLRLSCAASGITFLWNARGWYRQAPGKERELVAVISIGGSTYYADSVKGRFTISRDNAKNTVYLQMNSLKPEDTAVYYCAATEGPAYDYEYWGQGTQVTVSS”, the “polyreactivity (PSR sort gate)” value was “low polyreactivity”. With “QVQLVESGGGLVQAGGSLRLSCAASGIIFNGYAMGWYRQAPGKERELVAAISSSGGRTYYADSVKGRFTISRDNAKNTVYLQMNSLKPEDTAVYYCAADAAGSRVYPYDYWGQGTQVTVSS” the “polyreactivity (PSR sort gate)” value was “high polyreactivity”. In the case of “QVQLVESGGGLVQAGGSLRLSCAASGFIFQPYAMGWYRQAPRKERELVAAITSRGGRTYYADSVKGRFTISRDNAKNTVYLQMNSLKPEDTAVYYCNGDIYASEYYYWGQGTQVTVSS”, the “polyreactivity (PSR sort gate)” value is reported as “low polyreactivity”. For “QVQLVESGGGLVQAGGSLRLSCAASGLTFGNYAMGWYRQAPGKERELVAAISKRGGTTYYADSVKARFTISRDNAKNTVYLQMNSLKPEDTAVYYCSARDYSHPTDDNYWGQGTQVTVSS”, the “polyreactivity (PSR sort gate)” value was “high polyreactivity”. In the case of “QVQLVESGGGLVQAGGSLRLSCAASGSTLKYYTMGWYRQAPGKERELVAAISWSGGRTYYADSVKGRFTISRDNAKNTVYLQMNCLKPEDTAVYYCAKYPGYRSSGRISYEYDYWGQGTQVTVSS”, the “polyreactivity (PSR sort gate)” value is reported as “high polyreactivity”. With “QVQLVESGGGLVQAGGSLRLSCAASGGTFSVYVMGWYRQAPGKERELVAAIRDRGVSTYYADSVKGRFTISRDNAKNTVYLQMNSEKPEDTAVSYCAAKYSYSRKPGAYYYWGQGTQVTVSS” the “polyreactivity (PSR sort gate)” value was “high polyreactivity”. In the case of “QVQLVESGGGLVQAGGSLRLSCAASGITLNRNAMGWYRQAPGKERELVSRISRRGGTTYYADSVKGRFTISRDNAKNTVYLLMNSLKPEDTAVYYCNAGPYGGNPFDYSGQGTQVTVSS”, the “polyreactivity (PSR sort gate)” value is reported as “high polyreactivity”. In the case of “QVQLVESGGGLVQAGGSLRLSCAASGSIYDFYAMGWYRQAPGKERELVAAISWSGTSTYYADSVKGRFTISRDNAKNTVYLQMNSLKPEDTAVYYCAVVAGQSYFNRYDYWGQGTQVTVSS”, the “polyreactivity (PSR sort gate)” value is reported as “low polyreactivity”. In the case of “QVQLVESGGGLVQAGGSLRLSCAASGGTFSRNAMGWYRQAPGKERELVAAINTSGVSTSYADSVKGRFTISRDNAKNTVYLQMNSLKPEDTAVYYCAAETSSAEVDYWGQGTQVTVSS”, the “polyreactivity (PSR sort gate)” value is reported as “low polyreactivity”. With “QVQLVESGGGLVQAGGSLRLSCAASGRTFDVYAMGWDRQAPGKERELVAASTSGGSTYYADSVKGRFTISRDNAKNTVYLQMNSLKPEDTAVYYCATDVDKSLYDYWGQGTQVTVSS” the “polyreactivity (PSR sort gate)” value was “low polyreactivity”. With “QVQLVESGGGLVQAGGSLRLSCAASGRTFFWYAMGWYRQAPGKERELVADISSSGGSTYYADSVKGRFTISRDNAKNTVYLQMNSLKPEDTAVYYCAALSPWWRGGYDYWGQGTQVTVSS” the “polyreactivity (PSR sort gate)” value was “high polyreactivity”. For “QVQLVESGGGLVQAGRSLRLSCAASGFIFDWNAMGWYRQAPGKERELVAAISWSGGRTYYADSVKGRFTISRDNAKNTVYLQMNSLKPEDTAVYYCNARRYFSRDTSGYNYWGQGTQVTVSS”, the “polyreactivity (PSR sort gate)” value was “high polyreactivity”. In the case of “QVQLVESGGGLVQAGGSLRLSCAASGGIFYSNAMGWYRPAPGKERELVAAISSSGGSTYYADSVKGRFTISRDNAKNTVYLQMNSLKPEDTAVYYCAARPTVRPVVRFGYWGQGTQVTVSS”, the “polyreactivity (PSR sort gate)” value is reported as “high polyreactivity”. With “QVQLVESGGGLVQAGGSLRLSCAASGRIFRGYAMGLYRQAPGKEREFVAAISWSGGDTYYADSVKGRFTISRDTAKNTVYLQMNSLKPEDTAVYYCATEYRLIPGPFVWPYDYWGQGTQVTVSS” the “polyreactivity (PSR sort gate)” value was “high polyreactivity”. With “QVQLVESGGGLVQAGVSLRLSCAASGFTFDYYTMGWYRQAPGKEREFVAAITWNGGTTNYADSVKGRFTISRDNAKNTVYLQMNSLKPEDTAVYYCAATAYWYYSNDSGRSYDYWGQGTQVTVSS” the “polyreactivity (PSR sort gate)” value was “low polyreactivity”. With “QVQHVESGGGLVQAGGSLRISSAASGYIFDKYAMGRYRQAPGKERELVAAITYSGGSTYYADSVKGRFTISRDNAKNTVYLQMNSLIAEDTAVNYCAPEVRRSTLEFGYWRQGTQVTVSS” the “polyreactivity (PSR sort gate)” value was “high polyreactivity”. For “QVQLVESGGGLVQAGGSLRLSCAASGSTFSYYAMGWYRQAPGKESELVAAISRTAVSTYYADSVKGRFTISRDNAKNTVYLQMYSLKPEDTAVYYCAASHYHGYSLGYDYWGQGTQVTVSS”, the “polyreactivity (PSR sort gate)” value was “high polyreactivity”. For “QVQLVESGGGLVQAGGSLRLSCAASGRIFLVYGMGWYREAPGKERELVASITYRGGSTYYADSVKGRFTISRDNAKNTVYLQMNSLKPEDTAVYYCADDGAFYASTEMDYWGQGTQVNVSS”, the “polyreactivity (PSR sort gate)” value was “low polyreactivity”. For “QVQLVESGGGLVQAGGSLRLSCAASGRTFRYYTMGWYRQAPGKERELVAVISRSGGNTYYADSVKGRFTISRDNAKNTVYLQMNSLKPEDTAVYYCAAKIALDNDYWGQGTQVTVSS”, the “polyreactivity (PSR sort gate)” value was “high polyreactivity”. For “QVQLVESGGGLVQAGGSLRLTCAASGFTFGSYAMGWNRQAPGKERELVAVITRSGRTNYADSVKGRFTISRDNAKNTVYLQMNSLKPEDTAVYYCNADDVDDEVSPDLTEMDYWGQGTQVTVSS”, the “polyreactivity (PSR sort gate)” value was “low polyreactivity”. For “QVQLVESAVGLVQAGGSLRLSSAASGFTFLNYAMGSYRQAPGKVRELVAAITWSGGNTYYADSVMGRFTISRDNAKNTVYLQMNSLKPEDTAVYYCAADYRARGKFYWGQGTQVTVSS”, the “polyreactivity (PSR sort gate)” value was “high polyreactivity”. For “QVQLVESGGGLVQAGGSLRLSCAASGRTFDGYAMGWYRQAPGKEREMVAAISRGGGNTRYADSVKGRFTISRDNAKNTVYLQMNSLKPEDTAVYYCNKLSFFPYITDEYWGQGTQVTVSS”, the “polyreactivity (PSR sort gate)” value was “high polyreactivity”. For “QVQLVESGGGLVQAGGSLRLSCAASGSIFFRNAMGWYRQAPGKERELVAAITFSGGRTYYADSVKGRFTISRDTANNTVYLQMNSMKPEDTAVYYCAGRRSYTYARYDYWGQGTQVTVSS”, the “polyreactivity (PSR sort gate)” value was “high polyreactivity”. In the case of “QVQLVESGGGLLQAGGSLRLSCAASGITFRRNTMGWYREAPGKVRELVATISWRGGNTFYADSVKGRCTISRDNAKNTVYLQMNSRKPEDTAVYYCAAYSPYITRPGYAPYGYWGQATQVTVSS”, the “polyreactivity (PSR sort gate)” value is reported as “high polyreactivity”. With “QVQLVESGGGLVQAGGSLRLSCAASGRISVFNAMGWYRQAPGKERELVAAITSGGSTNYADSVKGRFTISRDNAKNTVYLQMNSLKPEDTAVYYCNADVYHSHEPHYDYWGQGTQVTVSS” the “polyreactivity (PSR sort gate)” value was “low polyreactivity”. With “QVQLVESGGGLVQAGGSLRLSCAASGRTLNYYAMVCYRQAPGKERELVASIDWDTGITDYADSVKGRFTISRDNAKNTVYLQMNSLKPEDSAVYYCAAVRVTKKYSYAYWGQGTQVTVSS” the “polyreactivity (PSR sort gate)” value was “low polyreactivity”. With “QVQLVESGGGLVQAGGSLRLSCAASGISFSYYAMGLCRQAPGKERELVAAISISGGRTYYADSVKGRFTISRDNAKNTVYLQMNSLKPEDTAVYYCASCVGSRIKQVGNDYWGQVTQVTVSS” the “polyreactivity (PSR sort gate)” value was “high polyreactivity”. In the case of “QVQLEESGGGLVQAGGSLRLSCAASGRIFVFYDMGWYRQAPGKERELVATITRSGGRTYYADSVKGRFTISRDNAKNTVYLQMNSLKPEDTAVYYCAARRYGKYDYWGQGTQVTVSS”, the “polyreactivity (PSR sort gate)” value is reported as “low polyreactivity”. For “QVQLVESGGGLVQAGGSLRLSCAASGRIFPVYAMGWYRQAPGKERELVAAIDYSDGSTYYADSVKGRFTISRDNAKNTVYLQMNSLKPEDTAVYYCAADYDAIYLWWGYDYWGQGTQVTVSS”, the “polyreactivity (PSR sort gate)” value was “low polyreactivity”. With “QVQLVESGGVLVQAGGSLRLSCDASGRIFKYNAMGWYRQAPGKERELVDVITSGVSTYYADSVKGRFTISRDNAKNTVYLQMNSLKPEDTAVYYCAKKYYKVHKFDYWCQGTQVTVSS” the “polyreactivity (PSR sort gate)” value was “low polyreactivity”. With “QVQLVESGGGLVQAGGSLRLSCAASGRSFEVYVMGWYRQAPGKERELVAAISTGGSTYYADSVKGRFTISRDNAKNTVYLQMNSLKPEDTAVYYCAAKRTGNGYPRSGYSRYEYWGQGTQVTVSS” the “polyreactivity (PSR sort gate)” value was “high polyreactivity”. For “QVQLVESGGGLVQAGGSLRLSCASSGRTFSYYALGWSRQAPGKERELVAAITSGGSTYYADSVKGRFTISRDNAKNTVYLQMNSLKPEDTAVYYCAADPGDDYWGQGTQVTVSS”, the “polyreactivity (PSR sort gate)” value was “low polyreactivity”. For “QVQLVESGGGLVQAGGSLRLSCAASGFTFSYYAMGWYRQAPGKERELVAAISWSGTATYYADSVKGRFTISRDNAKNTVYLQMNSLKPEDTAVYYCAAGYSASGKVDYRGQGTQVTVSS”, the “polyreactivity (PSR sort gate)” value was “high polyreactivity”. With “QVQLVESGGGLVQAGGSLRLSCAASGFTFWTYAMGWYRQAPGKERELVAAITGIGGSTYYADSVKGRFTISRDNAKNTVYLQMNSLKPEDTAVYYCAARYQATYPSMGYWGQGTQVTVSS” the “polyreactivity (PSR sort gate)” value was “low polyreactivity”. In the case of “QVQLVESGGGLVQAGGSLRLSCAASGSTFDQYAMGWYRQAPGKDRELVAAISGSGGRTSYADSVKGRFTISRDNAKNTVYLQMNSLKPEDTAVYYCNKASYRISVPRYDYWGQGTQVTVTS”, the “polyreactivity (PSR sort gate)” value is reported as “high polyreactivity”. With “QVQLVESGGGLVQAGGSLRLSCAASGSIFDWYVMGWYRQPPGKERELVATITRDGSTNYADSVKGRFTISRDNAKNTVYLQMNSLKPEDTAVYYCNAASRAYGYNYWGQGTQVTVSS” the “polyreactivity (PSR sort gate)” value was “low polyreactivity”. With “QDQLVESGGGLVQAGGSLRLSCAASGNTFTVNAMGWYRQAPGKERELVATINSTGGSTYYADSVKGRFTISRDNAKNTVYLQMNSLKPEDPAVYYAGSSNSFAFGGYDYWGQGTQVTVSS” the “polyreactivity (PSR sort gate)” value was “low polyreactivity”. With “QVQLVESCGGLVQAGCSLRLSCAASGRTFAYNAMGWYRQAPGKERELVADITSGGSTYYADSVKGRFTISRDNAKNTVYLQMNSLKPEDTAVYYCAAYPQFWYWDYNYWGQGTQVTVSS” the “polyreactivity (PSR sort gate)” value was “high polyreactivity”. With “QVQLVESGGGIVQAGGSLRLSCAASGRIFAFNAMGWYRPAPGKERELVADITSSGVNTYYADSVKGRFTISRDNAINTVYLQMNSLKPEYTAVYYCAARSYLRWWVGMEYWGQGTQVTVSS” the “polyreactivity (PSR sort gate)” value was “low polyreactivity”.
